Assay results taken from doi:10.1101/2021.08.28.457928 (bioRxiv, 2021).

B1: SNX2_(62-82) peptide (peptide)
peptide: TEVVLDDDREDLFAEATEEVS
notes: SNX2, human, residues 62 to 82; also called SNX2 62 to 82; second aDLF motif of SNX2; source: synthetic peptide (Genscript)
B2: SNX1_(35-51) peptide (peptide)
peptide: EAGDSDTEGEDIFTGAA
notes: SNX1, human, residues 35 to 51; also called first aDLF motif of human SNX1; source: synthetic peptide (Genscript)
B3: GST-mSNX1(1-139) (domain or fragment, mouse, UniProt Q9WV80 1-139, looked up)
chain: MASGGGGCSASERLPPPFPGMDPESEGAAGASEPEAGDSDTEGEDIFTGAAAATKPQSPKKTTSLFPIKNGSKENGIHEDQDQEPQDLFADATVELSLDSTQNNQKTMPGKTLTSHSPQEATNSPKPQPSYEELEEEEQ
notes: SNX1, mouse, residues 1 to 139; Vector pGEX4T-2, thrombin-cleavable GST; named GST-mSNX1(1-139) in the ITC; also called N-terminal extension of mouse SNX1; source: E. coli BL21 CodonPlus (DE3), purified (glutathione Sepharose, SEC); not shown: GST, N-terminal, kept
B4: isolated FERM domain of human SNX27 (domain or fragment, UniProt Q96L92 269-531, looked up)
chain: YNGVSDVELRVALPDGTTVTVRVKKNSTTDQVYQAIAAKVGMDSTTVNYFALFEVISHSFVRKLAPNEFPHKLYIQNYTSAVPGTCLTIRKWLFTTEEEILLNDNDLAVTYFFHQAVDDVKKGYIKAEEKSYQLQKLYEQRKMVMYLNMLRTCEGYNEIIFPHCACDSRRKGHVITAISITHFKLHACTEEGQLENQVIAFEWDEMQRWDTDEEGMAFCFEYARGEKKPRWVKIFTPYFNYMHECFERVFCELKWRKENIFQM
notes: FERM domain of human SNX27; The AlphaFold2 modelling took the FERM domain as residues 269 to 531; also called hSNX27_(FERM)
B5: SNX1_(75-92) peptide (peptide)
peptide: NGIHEEQDQEPQDLFADA
notes: SNX1, human, residues 75 to 92; also called SNX1 75 to 92; hSNX1_(75-92); source: synthetic peptide (Genscript)
B6: SNX2_(16-33) peptide (peptide)
peptide: TDFEDLEDGEDLFTSTVS
notes: SNX2, human, residues 16 to 33; also called SNX2 16 to 33; first aDLF motif of SNX2; source: synthetic peptide (Genscript)

How the values were obtained:
Settings in all cases: both partners purified
full-length mouse SNX27 = molecular target: T1, full-length mouse SNX27 (mouse, UniProt Q3UHD6 1-539); assay: ITC; 800 μM SNX1 or SNX2 peptide titrated into 20 μM full-length mouse SNX27; 25 °C; 50 mM HEPES pH 7.5, 200 mM NaCl, 5% glycerol, 1 mM β-ME with 1:10 peptide buffer (100 mM Tris-HCl pH 10.6); single-site model
T1 construct: SNX27, mouse, full length; Vector pMCSG7, ligation independent cloning; also called mSNX27FL

[1] = molecular target: B4; assay: ITC; 800 μM hSNX27 FERM titrated into 20 μM GST-mSNX1(1-139) or His-SNX1FL; 25 °C; 50 mM HEPES pH 7.5, 200 mM NaCl, 5% glycerol, 1 mM β-ME; single-site model
[2] = molecular target: T2, full-length mouse SNX1 with an N-terminal His-tag (mouse, UniProt Q9WV80 1-522); assay: as above
T2 construct: SNX1, mouse, full length; Vector pMW172Kan; also called mSNX1FL; His-SNX1FL; source: E. coli BL21 CodonPlus (DE3), purified (TALON or Ni-NTA, SEC); not shown: His-tag, N-terminal, kept

human SNX27(K496D) = molecular target: T3, human SNX27(K496D) (human, UniProt Q96L92 1-541, K496D); assay: ITC; 600 μM SNX1(75-92) peptide titrated into 20 μM hSNX27 wild type or single-site mutant; 25 °C; 50 mM HEPES pH 7.5, 200 mM NaCl, 5% glycerol, 1 mM β-ME; single-site model
T3 construct: SNX27, human, full length; the text prints R496D, the methods and the legend K496D; also called hSNX27 K496D; SNX27(R496D)

[3] = molecular target: T4, human SNX27 full length, wild type (human, UniProt Q96L92 1-541); assay: as above
T4 construct: SNX27, human, full length; also called hSNX27FL; hSNX27 WT

Kd (full-length mouse SNX27) [µM] | Binder | further results
22.6 | B1 | 
33.4 | B2 | 
 | B3 | Kd [1]: 39.1 µM
 | B4 | Kd [2]: 41 µM
13.3 | B5 | Kd (human SNX27(K496D)): 56.4 µM; Kd [3]: 12.7 µM
37.8 | B6 | 
